{"source": "paper PMC3875777", "about": "“Aberrantly hypermethylated Homeobox A2 derepresses metalloproteinase-9 through TBP and promotes invasion in Nasopharyngeal carcinoma”", "key": {"recombinant His-TBP": {"molecular_target": "recombinant His-TBP (UniProt P20226 1-339)", "sequence (P20226 whole entry)": "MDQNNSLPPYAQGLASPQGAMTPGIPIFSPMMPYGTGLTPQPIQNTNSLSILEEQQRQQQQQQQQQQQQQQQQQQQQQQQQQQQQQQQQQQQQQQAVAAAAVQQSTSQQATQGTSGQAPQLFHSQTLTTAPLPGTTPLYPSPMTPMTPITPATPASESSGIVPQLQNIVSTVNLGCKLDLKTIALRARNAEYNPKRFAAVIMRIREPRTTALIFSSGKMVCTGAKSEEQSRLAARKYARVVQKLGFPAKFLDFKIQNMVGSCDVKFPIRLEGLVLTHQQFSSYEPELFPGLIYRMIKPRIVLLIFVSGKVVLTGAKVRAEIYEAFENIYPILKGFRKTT", "experiment": "EMSA; supershifted by antibody; Pull-down: 100-250 pmole probe on M-280 streptavidin Dynabeads, 100-250 ug nuclear extract, 2.5 ug salmon sperm DNA, 1 h room temperature, washes with 0.5% NP-40; EMSA: LightShift kit, 20 fmol probe, 37 C 20 min, 6% gel in 1X TBE; salt and pH not given", "conditions": "protein: recombinant; tags: His; label: 5'-biotin; blunt"}, "recombinant His-HOXA2": {"molecular_target": "recombinant His-HOXA2 (UniProt O43364 1-376)", "sequence (O43364 whole entry)": "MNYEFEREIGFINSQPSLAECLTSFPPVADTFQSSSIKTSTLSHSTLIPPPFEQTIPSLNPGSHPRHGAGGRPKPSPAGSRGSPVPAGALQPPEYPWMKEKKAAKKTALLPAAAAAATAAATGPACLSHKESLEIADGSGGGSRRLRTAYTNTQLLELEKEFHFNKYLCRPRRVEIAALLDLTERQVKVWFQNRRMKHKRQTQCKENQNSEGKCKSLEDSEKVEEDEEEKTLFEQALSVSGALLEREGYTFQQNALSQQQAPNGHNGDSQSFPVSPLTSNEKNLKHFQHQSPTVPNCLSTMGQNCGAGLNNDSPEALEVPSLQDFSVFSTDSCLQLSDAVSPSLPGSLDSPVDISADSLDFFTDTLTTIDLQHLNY", "experiment": "EMSA; supershifted by antibody; Pull-down: 100-250 pmole probe on M-280 streptavidin Dynabeads, 100-250 ug nuclear extract, 2.5 ug salmon sperm DNA, 1 h room temperature, washes with 0.5% NP-40; EMSA: LightShift kit, 20 fmol probe, 37 C 20 min, 6% gel in 1X TBE; salt and pH not given", "conditions": "protein: recombinant; tags: His; label: 5'-biotin; blunt"}}}
{"binder": "MMP9 TATA WT (dsDNA) DNA 1: GAGCGCCTCCTTAAAGCCCCCACAA DNA 2: TTGTGGGGGCTTTAAGGAGGCGCTC", "values": [{"measurement": "binding result", "setting": "recombinant His-TBP", "result": "binds"}, {"measurement": "binding result", "setting": "recombinant His-HOXA2", "result": "binds"}]}
